Assay [1] has as its target T1, active human MMP-9 catalytic domain (BIOMOL, SE-244) (human, UniProt P14780 107-444, limits assumed).
T1 construct: domain: catalytic domain; also called Cat-huMMP-9; cat-huMMP-9
As to the kind of experiment: plot of kobs vs antibody concentration from inhibition progress curves, 25 C. Here is the method:
Materials: [0447] Substrate: Mca-KPLGL-Dap(Dnp)-AR-NH₂ (M-2350) from BACHEM (521575). A 10 mM stock solution was prepared in DMSO. [0448] Human MMP-9 catalytic domain (BIOMOL, SE-244). [0449] M0237-D02 hIgG1: 2517-068. [0450] All measurements were performed at 25° C. in TCNB: 50 mM Tris/HCl, 10 mM CaCl₂, 150 mM NaCl 0.05% Brij 35, pH 7.5. [0451] 96-well black plates from Perkin Elmer (6005270) [0452] Spectramax M2e to measure fluorescence emission of the substrate upon hydrolysis (λexc=328 nm and λₑₘ=393 nm)
The enzyme (at a final concentration ranging from 1.5 to 12.3 nM), the substrate (9 μM final) and the M0237-D02 antibody were mixed, and the fluorescence was immediately recorded in order to follow the hydrolysis of the substrate. The observed inhibition rate (kobs) was obtained by analyzing the progress curves with a single exponential. The value for kₒₙ and koff were calculated from the plot of the kobs vs. the antibody concentration using the following equation: […]

Assay [2] concerns the target T1, active human MMP-9 catalytic domain …. Kind of assay: enzyme inhibition with fluorogenic peptide substrate Mca-KPLGL-Dap(Dnp)-AR-NH2; Ki from IC50 vs substrate concentration, 30 C. Here is the method: (§1) Materials: [0424] Substrate: Mca-KPLGL-Dap(Dnp)-AR-NH₂ (M-2350) from BACHEM (521575). A 10 mM stock solution was prepared in DMSO. [0425] Enzymes: [0426] Human MMP-9 catalytic domain (BIOMOL, SE-244). Enzyme concentration was measured by titration with TIMP-1 (2522-104) [0427] Mouse MMP-9 (R&D, 909-MM), APMA-activated. [0428] M0237-D02 hIgG1: 2517-014. Dialysed against TCN. [0429] TCNB: 50 mM Tris/HCl, 10 mM CaCl₂, 150 mM NaC, […] Brij 35, pH 7.5. [0430] 96-well black plates from Perkin Elmer (6005270) [0431] Spectramax M2e to measure fluorescence emission of the substrate upon hydrolysis (temperature control set at 30° C.; λexc=328 nm and λₑₘ=393 nm)
(§2) The enzyme (final concentration=0.23 and 0.17 nM for the human and mouse MMP-9, respectively) was preincubated with various concentrations (0-50 nM) of M0237-D02 for 1 h at 30° C. The substrate was then added to a final concentration ranging from 5 to 40 μM and initial rates were recorded.

Assay [3] deals with Mouse MMP-9 (R&D, 909-MM), APMA-activated (mouse, UniProt P41245 108-730, limits assumed). Described as above. Here is the method: as §1, §2
Assay [4] concerns the target T2, h-MMP-9/h-TIMP-1 complex (human, UniProt P14780 107-444; P01033 24-207, limits assumed).
T2 construct: also called huTIMP-1/cat-huMMP-9; MMP-9/TIMP-1 complex
Kind of assay: SPR Biacore 3000, antibody amine-coupled to CM5 chip (direct capture). On the procedure:
(§3) Experiments were performed at 25° C. with the help of a Biacore 3000 instrument. The MMP-9 binding protein (M0166F10) and the M0237-D02 antibody were coated to a CM5 chip either via standard amine coupling or using an anti-Fc antibody surface. Then either the active, human MMP-9 catalytic domain (BIOMOL, SE-244), the human pro-MMP-9 (R&D, 911-MP), the human TIMP-1 (R&D, 970-TM) or a h-MMP-9/h-TIMP-1 complex were flowed over the antibody surfaces, and binding was recorded.
(§4) It was shown that the human MMP-9 catalytic domain binds to M0166-F10, whether this antibody is directly captured via amine coupling or captured with an anti-Fc antibody surface.
For orientation: SPR reads the build-up and loss of mass on a sensor chip optically.

Assay [5] concerns the target T3, human pro-MMP-9 (R&D, 911-MP) (human, UniProt P14780 20-707).
T3 construct: Zymogen form; also called Pro-huMMP-9
The assay is described as above. On the procedure: as §3, §4

In assay [6] the target is T4, human TIMP-1 (R&D, 970-TM) (human, UniProt P01033 24-207).
T4 construct: also called huTIMP-1; h-TIMP-1
The assay is described as above. On the procedure: as §3, §4

T1 sequence (P14780 107-444 limits assumed): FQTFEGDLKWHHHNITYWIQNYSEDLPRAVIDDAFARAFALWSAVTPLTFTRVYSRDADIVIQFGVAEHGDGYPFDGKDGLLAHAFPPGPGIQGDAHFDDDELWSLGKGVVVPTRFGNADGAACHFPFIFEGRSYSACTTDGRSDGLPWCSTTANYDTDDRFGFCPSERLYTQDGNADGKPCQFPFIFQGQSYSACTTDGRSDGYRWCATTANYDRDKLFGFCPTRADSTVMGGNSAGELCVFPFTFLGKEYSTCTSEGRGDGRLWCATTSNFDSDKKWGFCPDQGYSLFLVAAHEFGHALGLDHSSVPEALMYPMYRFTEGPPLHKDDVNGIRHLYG
T2 sequence (P14780 107-444 limits assumed, chain 1 of 2): as the sequence (P14780 107-444 limits assumed) above
T2 sequence (P01033 24-207 limits assumed, chain 2 of 2): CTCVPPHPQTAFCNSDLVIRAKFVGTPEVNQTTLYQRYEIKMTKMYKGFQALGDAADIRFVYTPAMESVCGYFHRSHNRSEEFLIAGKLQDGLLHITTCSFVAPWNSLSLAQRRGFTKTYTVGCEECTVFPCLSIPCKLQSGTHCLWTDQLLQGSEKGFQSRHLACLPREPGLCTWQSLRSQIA
T3 sequence (P14780 20-707): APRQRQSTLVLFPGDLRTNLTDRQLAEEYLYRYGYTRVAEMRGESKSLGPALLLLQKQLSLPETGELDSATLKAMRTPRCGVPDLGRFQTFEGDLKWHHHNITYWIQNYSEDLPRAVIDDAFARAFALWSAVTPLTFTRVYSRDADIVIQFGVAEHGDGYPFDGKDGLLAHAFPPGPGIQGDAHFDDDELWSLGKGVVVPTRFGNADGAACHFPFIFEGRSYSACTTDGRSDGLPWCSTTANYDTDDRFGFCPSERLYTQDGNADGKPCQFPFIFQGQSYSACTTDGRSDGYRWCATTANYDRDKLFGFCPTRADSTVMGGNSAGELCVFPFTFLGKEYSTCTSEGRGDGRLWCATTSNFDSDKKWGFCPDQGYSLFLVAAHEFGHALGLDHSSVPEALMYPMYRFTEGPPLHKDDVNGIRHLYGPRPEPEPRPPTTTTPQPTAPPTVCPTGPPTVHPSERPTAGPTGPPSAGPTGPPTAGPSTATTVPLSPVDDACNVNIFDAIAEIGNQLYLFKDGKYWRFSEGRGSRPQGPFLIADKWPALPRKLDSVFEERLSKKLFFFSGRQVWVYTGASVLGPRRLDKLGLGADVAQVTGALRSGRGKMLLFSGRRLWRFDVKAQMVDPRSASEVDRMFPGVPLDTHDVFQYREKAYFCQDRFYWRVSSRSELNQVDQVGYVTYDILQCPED
Chain of Mouse MMP-9 (R&D, 909-MM), APMA-activated (P41245 108-730 limits assumed): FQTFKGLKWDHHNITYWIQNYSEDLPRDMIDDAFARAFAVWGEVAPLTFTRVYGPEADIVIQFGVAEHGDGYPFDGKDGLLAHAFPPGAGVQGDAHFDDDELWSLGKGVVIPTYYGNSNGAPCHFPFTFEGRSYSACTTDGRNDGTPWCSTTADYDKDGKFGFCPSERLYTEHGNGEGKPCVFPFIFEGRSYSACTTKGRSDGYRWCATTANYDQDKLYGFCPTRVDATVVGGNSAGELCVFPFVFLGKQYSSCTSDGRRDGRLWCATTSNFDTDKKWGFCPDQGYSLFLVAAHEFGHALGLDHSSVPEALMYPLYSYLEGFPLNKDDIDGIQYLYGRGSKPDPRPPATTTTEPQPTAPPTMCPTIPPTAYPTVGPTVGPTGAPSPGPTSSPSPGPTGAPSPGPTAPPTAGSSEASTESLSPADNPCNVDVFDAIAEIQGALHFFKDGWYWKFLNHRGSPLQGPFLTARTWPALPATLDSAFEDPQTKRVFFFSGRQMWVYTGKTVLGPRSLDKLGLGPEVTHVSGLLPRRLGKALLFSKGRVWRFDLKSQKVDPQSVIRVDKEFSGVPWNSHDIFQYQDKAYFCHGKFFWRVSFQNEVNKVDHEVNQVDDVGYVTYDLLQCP
T4 sequence (P01033 24-207 limits assumed): as the sequence (P01033 24-207 limits assumed, chain 2 of 2) above

B1: 539A-M0237-D02 hIgG1 (antibody, V domains shown)
VH: EVQLLESGGGLVQPGGSLRLSCAASGFTFSQYPMWWVRQAPGKGLEWVSYIVPSGGRTYYADSVKGRFTISRDNSKNTLYLQMNSLRAEDTAVYYCAKDRAYGDYVGWNGFDYWGQGTLVTVSS
VL: DIQMTQSPATLSLSPGERATLSCRASQSISSFLAWYQQKPGQAPRLLIYDASYRATGIPARFSGSGSGTDFTLTISSLEPEDYAVYYCQQRGNWPITFGQGTRLEIKR
notes: Tested as hIgG1; also called M237-D02; DL8
B1: the off-rate (koff) (in general, the rate constant with which the complex falls apart) in assay [1] was around 0.0004 s⁻¹. For the same molecule, the kon (commonly the second-order rate constant of association) in assay [1] was around 70000 M⁻¹ s⁻¹. The values for the inhibitory constant (Ki) in assay [2] and in assay [3] were 0.92 nM and 1.3 nM, respectively. Further, in assay [4], the binding result was “no binding”.

B2: 539A-M0166-F10 (antibody, V domains shown)
VH: EVQLLESGGGLVQPGGSLRLSCAASGFTFSPYLMNWVRQAPGKGLEWVSSIYSSGGGTGYADSVKGRFTISRDNSKNTLYLQMNSLRAEDTAVYYCARIYHSSSGPFYGMDVWGQGTTVTVSS
VL: QSELTQPPSASAAPGQRVTISCSGSSSNIGSNTVTWYQKLPGTAPKLLIYNNYERPSGVPARFSGSKSGTSASLAISGLQSEDEADYYCATWDDSLIANYVFGSGTKVTVLG
notes: also called DL15
On to B2, for which the binding result in assay [5], in assay [6] and in assay [4] was “no binding” in each case.
